Test results published in PMC5662892.

Tested on: ORC-Qdot705 (Orc1-6) (budding yeast)
Assay: single-molecule TIRFM
Settings: RPA: 20 mM Tris pH 7.5, 50 mM NaCl, 2 mM EDTA, 0.2 mg/ml BSA, ORC: 25 mM HEPES pH 7.6, 12 mM MgOAc, 50 uM ZnOAc, 1 mM DTT, 225 mM KGlut, 3 mM ATP

Question: With lambda-ARS1 as the substance, how does the binding signal (% of binding positions at ARS1 site) read?
Answer: 12.8
